{
  "source": "patent US20210221874A1",
  "biological_target": "anthrax protective antigen, wild type PA83 (Bacillus anthracis) (UniProt P13423)",
  "sequence (P13423 30-764)": "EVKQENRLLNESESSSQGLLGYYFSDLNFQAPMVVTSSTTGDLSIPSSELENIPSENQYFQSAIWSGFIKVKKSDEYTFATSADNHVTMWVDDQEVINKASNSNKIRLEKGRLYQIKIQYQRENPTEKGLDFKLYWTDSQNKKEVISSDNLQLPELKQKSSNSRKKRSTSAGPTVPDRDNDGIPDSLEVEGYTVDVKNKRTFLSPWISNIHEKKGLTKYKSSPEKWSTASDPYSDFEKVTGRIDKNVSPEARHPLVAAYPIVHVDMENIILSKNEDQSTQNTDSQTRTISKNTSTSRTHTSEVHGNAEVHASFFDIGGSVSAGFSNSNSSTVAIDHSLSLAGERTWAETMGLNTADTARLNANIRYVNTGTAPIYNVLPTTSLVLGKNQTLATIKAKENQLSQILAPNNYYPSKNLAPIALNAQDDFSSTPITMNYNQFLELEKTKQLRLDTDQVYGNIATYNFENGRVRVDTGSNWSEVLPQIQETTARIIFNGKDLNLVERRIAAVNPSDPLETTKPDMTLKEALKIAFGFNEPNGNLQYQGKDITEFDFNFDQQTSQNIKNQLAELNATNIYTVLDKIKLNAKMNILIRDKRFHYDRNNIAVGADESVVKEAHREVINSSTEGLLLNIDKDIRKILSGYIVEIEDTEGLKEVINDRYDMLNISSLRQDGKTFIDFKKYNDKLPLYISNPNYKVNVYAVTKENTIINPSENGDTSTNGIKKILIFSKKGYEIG",
  "data": [
    {"substance": "neutralizing anti-PA mouse monoclonal antibody 14B7", "values": [
      {"measurement": "IC50 (read off the curve)", "value": 10, "unit": "nM"}
    ]}
  ]
}
